The text below walks through data of ChEMBL document CHEMBL2074203, “Multidrug resistance protein MRP1 protects against the toxicity of the major lipid peroxidation product 4-hydroxynonenal” (Biochem J, 2000).

Substrate in the data set: CCCCCC1OC(O)CC1SC[C@H](NC(=O)CC[C@H](N)C(=O)O)C(=O)NCC(=O)O
Nature of the data set: TP_TRANSPORTER: uptake in membrane vesicle from MRP1-expressing High Five insect cells. The data set is classed as functional, cell membranes, BTI-TN-5B1-4.

B1: Multidrug resistance-associated protein 1 (Homo sapiens) (protein)
chain: MALRGFCSADGSDPLWDWNVTWNTSNPDFTKCFQNTVLVWVPCFYLWACFPFYFLYLSRHDRGYIQMTPLNKTKTALGFLLWIVCWADLFYSFWERSRGIFLAPVFLVSPTLLGITMLLATFLIQLERRKGVQSSGIMLTFWLVALVCALAILRSKIMTALKEDAQVDLFRDITFYVYFSLLLIQLVLSCFSDRSPLFSETIHDPNPCPESSASFLSRITFWWITGLIVRGYRQPLEGSDLWSLNKEDTSEQVVPVLVKNWKKECAKTRKQPVKVVYSSKDPAQPKESSKVDANEEVEALIVKSPQKEWNPSLFKVLYKTFGPYFLMSFFFKAIHDLMMFSGPQILKLLIKFVNDTKAPDWQGYFYTVLLFVTACLQTLVLHQYFHICFVSGMRIKTAVIGAVYRKALVITNSARKSSTVGEIVNLMSVDAQRFMDLATYINMIWSAPLQVILALYLLWLNLGPSVLAGVAVMVLMVPVNAVMAMKTKTYQVAHMKSKDNRIKLMNEILNGIKVLKLYAWELAFKDKVLAIRQEELKVLKKSAYLSAVGTFTWVCTPFLVALCTFAVYVTIDENNILDAQTAFVSLALFNILRFPLNILPMVISSIVQASVSLKRLRIFLSHEELEPDSIERRPVKDGGGTNSITVRNATFTWARSDPPTLNGITFSIPEGALVAVVGQVGCGKSSLLSALLAEMDKVEGHVAIKGSVAYVPQQAWIQNDSLRENILFGCQLEEPYYRSVIQACALLPDLEILPSGDRTEIGEKGVNLSGGQKQRVSLARAVYSNADIYLFDDPLSAVDAHVGKHIFENVIGPKGMLKNKTRILVTHSMSYLPQVDVIIVMSGGKISEMGSYQELLARDGAFAEFLRTYASTEQEQDAEENGVTGVSGPGKEAKQMENGMLVTDSAGKQLQRQLSSSSSYSGDISRHHNSTAELQKAEAKKEETWKLMEADKAQTGQVKLSVYWDYMKAIGLFISFLSIFLFMCNHVSALASNYWLSLWTDDPIVNGTQEHTKVRLSVYGALGISQGIAVFGYSMAVSIGGILASRCLHVDLLHSILRSPMSFFERTPSGNLVNRFSKELDTVDSMIPEVIKMFMGSLFNVIGACIVILLATPIAAIIIPPLGLIYFFVQRFYVASSRQLKRLESVSRSPVYSHFNETLLGVSVIRAFEEQERFIHQSDLKVDENQKAYYPSIVANRWLAVRLECVGNCIVLFAALFAVISRHSLSAGLVGLSVSYSLQVTTYLNWLVRMSSEMETNIVAVERLKEYSETEKEAPWQIQETAPPSSWPQVGRVEFRNYCLRYREDLDFVLRHINVTINGGEKVGIVGRTGAGKSSLTLGLFRINESAEGEIIIDGINIAKIGLHDLRFKITIIPQDPVLFSGSLRMNLDPFSQYSDEEVWTSLELAHLKDFVSALPDKLDHECAEGGENLSVGQRQLVCLARALLRKTKILVLDEATAAVDLETDDLIQSTIRTQFEDCTVLTIAHRLNTIMDYTRVIVLDKGEIQEYGAPSDLLQQRGLFYSMAKDAGLV
In general, Km refers to the concentration of substrate that gives half-maximal velocity. For B1, the Km worked out at 1.6 µM.
